Reference: patent US20180071366A1
Each block holds one binder with its values, some of them ahead of it. Numbered stars: 1 amine (or outer) side, 2 acyl side, 3 side chain; on linkers, the order of the positions; unused ones are H or OH. Bridge positions count the residues as written; N and C are the ends. Square brackets hold non-standard residues; d marks the D form. * marks the point of attachment. C20 diacid = O=C(O)CCCCCCCCCCCCCCCCCCC(=O)*; γGlu = O=C(O)[C@H](CCC(=O)[*:2])N[*:1]; Hyp = O=C(O)[C@@H]1C[C@@H](O)CN1; NMeI = CC[C@H](C)[C@H](NC)C(=O)O; Aad = N[C@@H](CCCC(=O)O)C(=O)O; Orn = NCCC[C@H](N)C(=O)O; Sar = CNCC(=O)O

How the values were obtained:
[1] = target: recombinant human calcitonin receptor (hCT-R) (human), P30988; test: cell-based or functional assay
[2] = target: recombinant human amylin 3 receptor (hAMYR3) (human), P30988; test: cell-based or functional assay
recombinant human amylin 3 receptor (hAMYR3) (human), P30988, sequence (P30988 25-474, chain 1 of 2): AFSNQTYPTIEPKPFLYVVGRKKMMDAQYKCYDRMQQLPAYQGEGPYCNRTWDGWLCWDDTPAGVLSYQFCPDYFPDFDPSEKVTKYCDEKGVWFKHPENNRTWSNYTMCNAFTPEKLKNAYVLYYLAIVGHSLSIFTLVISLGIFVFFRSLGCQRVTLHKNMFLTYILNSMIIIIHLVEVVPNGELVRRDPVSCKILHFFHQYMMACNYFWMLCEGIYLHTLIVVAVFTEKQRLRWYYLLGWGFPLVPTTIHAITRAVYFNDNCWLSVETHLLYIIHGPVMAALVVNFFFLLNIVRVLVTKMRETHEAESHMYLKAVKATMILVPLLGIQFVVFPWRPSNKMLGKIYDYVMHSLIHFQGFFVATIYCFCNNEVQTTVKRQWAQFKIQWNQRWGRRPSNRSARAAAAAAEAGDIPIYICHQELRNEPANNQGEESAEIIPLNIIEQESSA
recombinant human amylin 3 receptor (hAMYR3) (human), P30988, sequence (O60896 24-148, chain 2 of 2, further chain): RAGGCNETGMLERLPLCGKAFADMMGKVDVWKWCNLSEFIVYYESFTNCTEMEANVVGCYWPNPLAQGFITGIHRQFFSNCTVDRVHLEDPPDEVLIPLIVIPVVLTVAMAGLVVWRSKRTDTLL

recombinant human calcitonin receptor (hCT-R) (human), P30988, sequence (P30988 25-474): as the sequence (P30988 25-474, chain 1 of 2) above

B1: Ref. 4 (peptide)
peptide: {C20 diacid-γGlu}-RCGTATCATERLA[Aad]FLQRSSF[Sar]A[NMeI]LSSTEVGSNT[Hyp]-NH2
modifications: disulfide 2-7
SMILES: CC[C@H](C)[C@@H](C(=O)N[C@@H](CC(C)C)C(=O)N[C@@H](CO)C(=O)N[C@@H](CO)C(=O)N[C@H](C(=O)N[C@@H](CCC(=O)O)C(=O)N[C@H](C(=O)NCC(=O)N[C@@H](CO)C(=O)N[C@@H](CC(N)=O)C(=O)N[C@H](C(=O)N1C[C@H](O)C[C@H]1C(N)=O)[C@@H](C)O)C(C)C)[C@@H](C)O)N(C)C(=O)[C@H](C)NC(=O)CN(C)C(=O)[C@H](Cc1ccccc1)NC(=O)[C@H](CO)NC(=O)[C@H](CO)NC(=O)[C@H](CCCNC(=N)N)NC(=O)[C@H](CCC(N)=O)NC(=O)[C@H](CC(C)C)NC(=O)[C@H](Cc1ccccc1)NC(=O)[C@H](CCCC(=O)O)NC(=O)[C@H](C)NC(=O)[C@H](CC(C)C)NC(=O)[C@H](CCCNC(=N)N)NC(=O)[C@H](CCC(=O)O)NC(=O)[C@@H](NC(=O)[C@H](C)NC(=O)[C@@H]1CSSC[C@H](NC(=O)[C@H](CCCNC(=N)N)NC(=O)CC[C@H](NC(=O)CCCCCCCCCCCCCCCCCCC(=O)O)C(=O)O)C(=O)NCC(=O)N[C@@H]([C@@H](C)O)C(=O)N[C@@H](C)C(=O)N[C@@H]([C@@H](C)O)C(=O)N1)[C@@H](C)O
hCT-R EC50 [nM] (cAMP formation, 1321N1 cells expressing hCT-R) [1]: 0.075 nM | hAMYR3 EC50 [nM] (cAMP formation, 1321N1 cells expressing hAMYR3) [2]: 0.031 nM

B2: Compound 8 (peptide)
peptide: {C20 diacid-γGlu}-RDGTAT[Orn]ATQRLAHFLQRSSF[Sar]A[NMeI]LSSTEVGSNT[Hyp]-NH2
modifications: lactam 2-7
SMILES: CC[C@H](C)[C@@H](C(=O)N[C@@H](CC(C)C)C(=O)N[C@@H](CO)C(=O)N[C@@H](CO)C(=O)N[C@H](C(=O)N[C@@H](CCC(=O)O)C(=O)N[C@H](C(=O)NCC(=O)N[C@@H](CO)C(=O)N[C@@H](CC(N)=O)C(=O)N[C@H](C(=O)N1C[C@H](O)C[C@H]1C(N)=O)[C@@H](C)O)C(C)C)[C@@H](C)O)N(C)C(=O)[C@H](C)NC(=O)CN(C)C(=O)[C@H](Cc1ccccc1)NC(=O)[C@H](CO)NC(=O)[C@H](CO)NC(=O)[C@H](CCCNC(=N)N)NC(=O)[C@H](CCC(N)=O)NC(=O)[C@H](CC(C)C)NC(=O)[C@H](Cc1ccccc1)NC(=O)[C@H](Cc1c[nH]cn1)NC(=O)[C@H](C)NC(=O)[C@H](CC(C)C)NC(=O)[C@H](CCCNC(=N)N)NC(=O)[C@H](CCC(N)=O)NC(=O)[C@@H](NC(=O)[C@H](C)NC(=O)[C@@H]1CCCNC(=O)C[C@H](NC(=O)[C@H](CCCNC(=N)N)NC(=O)CC[C@H](NC(=O)CCCCCCCCCCCCCCCCCCC(=O)O)C(=O)O)C(=O)NCC(=O)N[C@@H]([C@@H](C)O)C(=O)N[C@@H](C)C(=O)N[C@@H]([C@@H](C)O)C(=O)N1)[C@@H](C)O
hCT-R EC50 [nM] (cAMP formation, 1321N1 cells expressing hCT-R) [1]: 0.129 nM | hAMYR3 EC50 [nM] (cAMP formation, 1321N1 cells expressing hAMYR3) [2]: 0.059 nM

B4: Compound 7 (peptide)
peptide: {C20 diacid-γGlu}-RDGTAT[Orn]ATERLAHFLHRSSF[Sar]A[NMeI]LSSTEVGSNTP-NH2
modifications: lactam 2-7
SMILES: CC[C@H](C)[C@@H](C(=O)N[C@@H](CC(C)C)C(=O)N[C@@H](CO)C(=O)N[C@@H](CO)C(=O)N[C@H](C(=O)N[C@@H](CCC(=O)O)C(=O)N[C@H](C(=O)NCC(=O)N[C@@H](CO)C(=O)N[C@@H](CC(N)=O)C(=O)N[C@H](C(=O)N1CCC[C@H]1C(N)=O)[C@@H](C)O)C(C)C)[C@@H](C)O)N(C)C(=O)[C@H](C)NC(=O)CN(C)C(=O)[C@H](Cc1ccccc1)NC(=O)[C@H](CO)NC(=O)[C@H](CO)NC(=O)[C@H](CCCNC(=N)N)NC(=O)[C@H](Cc1c[nH]cn1)NC(=O)[C@H](CC(C)C)NC(=O)[C@H](Cc1ccccc1)NC(=O)[C@H](Cc1c[nH]cn1)NC(=O)[C@H](C)NC(=O)[C@H](CC(C)C)NC(=O)[C@H](CCCNC(=N)N)NC(=O)[C@H](CCC(=O)O)NC(=O)[C@@H](NC(=O)[C@H](C)NC(=O)[C@@H]1CCCNC(=O)C[C@H](NC(=O)[C@H](CCCNC(=N)N)NC(=O)CC[C@H](NC(=O)CCCCCCCCCCCCCCCCCCC(=O)O)C(=O)O)C(=O)NCC(=O)N[C@@H]([C@@H](C)O)C(=O)N[C@@H](C)C(=O)N[C@@H]([C@@H](C)O)C(=O)N1)[C@@H](C)O
hCT-R EC50 [nM] (cAMP formation, 1321N1 cells expressing hCT-R) [1]: 0.289 nM | hAMYR3 EC50 [nM] (cAMP formation, 1321N1 cells expressing hAMYR3) [2]: 0.032 nM

The remaining lines, values ahead:

hCT-R EC50 [nM] (cAMP formation, 1321N1 cells expressing hCT-R) [1]: 0.327 nM | hAMYR3 EC50 [nM] (cAMP formation, 1321N1 cells expressing hAMYR3) [2]: 0.011 nM
B3: Compound 6 (peptide)
peptide: {C20 diacid-γGlu}-RDGTAT[Orn]ATERLAHFLQRF[Sar]A[NMeI]LSSTEVGSNT[Hyp]-NH2
modifications: lactam 2-7
SMILES: CC[C@H](C)[C@@H](C(=O)N[C@@H](CC(C)C)C(=O)N[C@@H](CO)C(=O)N[C@@H](CO)C(=O)N[C@H](C(=O)N[C@@H](CCC(=O)O)C(=O)N[C@H](C(=O)NCC(=O)N[C@@H](CO)C(=O)N[C@@H](CC(N)=O)C(=O)N[C@H](C(=O)N1C[C@H](O)C[C@H]1C(N)=O)[C@@H](C)O)C(C)C)[C@@H](C)O)N(C)C(=O)[C@H](C)NC(=O)CN(C)C(=O)[C@H](Cc1ccccc1)NC(=O)[C@H](CCCNC(=N)N)NC(=O)[C@H](CCC(N)=O)NC(=O)[C@H](CC(C)C)NC(=O)[C@H](Cc1ccccc1)NC(=O)[C@H](Cc1c[nH]cn1)NC(=O)[C@H](C)NC(=O)[C@H](CC(C)C)NC(=O)[C@H](CCCNC(=N)N)NC(=O)[C@H](CCC(=O)O)NC(=O)[C@@H](NC(=O)[C@H](C)NC(=O)[C@@H]1CCCNC(=O)C[C@H](NC(=O)[C@H](CCCNC(=N)N)NC(=O)CC[C@H](NC(=O)CCCCCCCCCCCCCCCCCCC(=O)O)C(=O)O)C(=O)NCC(=O)N[C@@H]([C@@H](C)O)C(=O)N[C@@H](C)C(=O)N[C@@H]([C@@H](C)O)C(=O)N1)[C@@H](C)O

hCT-R EC50 [nM] (cAMP formation, 1321N1 cells expressing hCT-R) [1]: 0.027 nM | hAMYR3 EC50 [nM] (cAMP formation, 1321N1 cells expressing hAMYR3) [2]: 0.013 nM
B5: Compound 9 (peptide)
peptide: {C20 diacid-γGlu}-RDGTAT[Orn]ATQRLAHFLQRSSF[Sar]A[NMeI]PSSTEVGSNT[Hyp]-NH2
modifications: lactam 2-7
SMILES: CC[C@H](C)[C@@H](C(=O)N1CCC[C@H]1C(=O)N[C@@H](CO)C(=O)N[C@@H](CO)C(=O)N[C@H](C(=O)N[C@@H](CCC(=O)O)C(=O)N[C@H](C(=O)NCC(=O)N[C@@H](CO)C(=O)N[C@@H](CC(N)=O)C(=O)N[C@H](C(=O)N1C[C@H](O)C[C@H]1C(N)=O)[C@@H](C)O)C(C)C)[C@@H](C)O)N(C)C(=O)[C@H](C)NC(=O)CN(C)C(=O)[C@H](Cc1ccccc1)NC(=O)[C@H](CO)NC(=O)[C@H](CO)NC(=O)[C@H](CCCNC(=N)N)NC(=O)[C@H](CCC(N)=O)NC(=O)[C@H](CC(C)C)NC(=O)[C@H](Cc1ccccc1)NC(=O)[C@H](Cc1c[nH]cn1)NC(=O)[C@H](C)NC(=O)[C@H](CC(C)C)NC(=O)[C@H](CCCNC(=N)N)NC(=O)[C@H](CCC(N)=O)NC(=O)[C@@H](NC(=O)[C@H](C)NC(=O)[C@@H]1CCCNC(=O)C[C@H](NC(=O)[C@H](CCCNC(=N)N)NC(=O)CC[C@H](NC(=O)CCCCCCCCCCCCCCCCCCC(=O)O)C(=O)O)C(=O)NCC(=O)N[C@@H]([C@@H](C)O)C(=O)N[C@@H](C)C(=O)N[C@@H]([C@@H](C)O)C(=O)N1)[C@@H](C)O
